Biological target: McbR (Escherichia coli (avian pathogenic, strain APECX40)) (UniProt P76114)
Assay: EMSA

McbR (Escherichia coli (avian pathogenic, strain APECX40)), sequence (P76114 whole entry): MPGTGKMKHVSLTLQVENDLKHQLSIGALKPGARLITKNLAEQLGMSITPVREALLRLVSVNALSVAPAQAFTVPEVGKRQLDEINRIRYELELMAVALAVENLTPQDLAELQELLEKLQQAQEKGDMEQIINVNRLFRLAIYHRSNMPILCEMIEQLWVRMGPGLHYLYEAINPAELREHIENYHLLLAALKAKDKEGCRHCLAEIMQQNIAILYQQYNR

Question: How did the binding turn out when “ATGTTCGTGAATTTACAGGCGTTAGATTTACATACATTTGTGAATGTATGTACCATAGCACGACGATAATATAAACGCAGCAATGGGTTTATTAACTTTTGACCATTGACCAATTTGAAATCGGACACTCGAGGTTTACAT (double strand) [p-acrAB]” was run?
Answer: Its binding is “binds”.
